# Experimental data reported in PMC12809495, “Potential 14-3-3 binding sites in sirtuins reveal extended phosphosite-recognition modes” (Acta Crystallographica Section F: Structural Biology …, 2026).
# Several values for one entry are separate records, joined by “and”; a condition that tells them apart may be missing. Equal entries are not always repeated. Where no end group is shown, it is not given here. [ ]: non-standard residue; d: D form. pS = N[C@@H](COP(=O)(O)O)C(=O)O
# B1: Sirt3^S103 nonphosphorylated peptide (peptide)
# chain: GRRSISFSVGA
# modifications: none (nonphosphorylated Ser103). Limits are not given; they are taken from the 11-residue peptide in PDB 8ANC entity 2 (GRRSISFSVGA, S103 at position 6), assuming the same endecamer …
# B2: 14-3-3σ-ΔC (C-terminally truncated human 14-3-3σ) (domain or fragment, UniProt P31947 1-231, looked up)
# chain: MERASLIQKAKLAEQAERYEDMAAFMKGAVEKGEELSCEERNLLSVAYKNVVGGQRAAWRVLSSIEQKSNEEGSEEKGPEVREYREKVETELQGVCDTVLGLLDSHLIKEAGDAESRVFYLKMKGDYYRYLAEVATGDDKKRIIDSARSAYQEAMDISKKEMPPTNPIRLGLALNFSVFHYEIANSPEEAISLAKTTFDEAMADLHTLSEDSYKDSTLIMQLLRDNLTLWT
# notes: 14-3-3σ, human, C-terminally truncated gene fragment (ΔC) cloned into pPROEX-HTb; the structures show 'all 231 residues of the 14-3-3 monomer'; No removal of the His6 tag is described; The dimer in the crystals is formed with a symmetry mate; also called 14-3-3-ΔC; source: E. coli BL21 Rosetta (DE3), purified (nickel-nitrilotriacetic acid column)
# Key:
# [1] = biological target: 14-3-3σ-ΔC (C-terminally truncated human 14-3-3σ) (human) (UniProt P31947); assay: MST; label-free, intrinsic fluorescence of the 14-3-3 protein; 0.6 µM 14-3-3 protein titrated with peptide; 25 mM MES pH 6.5, 5 mM MgCl2, 5 mM CaCl2; 25°C
# 14-3-3 epsilon = biological target: T1, 14-3-3 epsilon (Homo sapiens); assay: MST
# T1 chain: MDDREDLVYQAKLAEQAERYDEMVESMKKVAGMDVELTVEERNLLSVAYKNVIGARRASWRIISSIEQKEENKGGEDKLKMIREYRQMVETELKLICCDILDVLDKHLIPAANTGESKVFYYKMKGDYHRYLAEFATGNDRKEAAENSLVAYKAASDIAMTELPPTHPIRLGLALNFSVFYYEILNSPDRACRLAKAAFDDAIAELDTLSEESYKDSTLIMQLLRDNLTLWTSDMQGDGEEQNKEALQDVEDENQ
# [2] = biological target: T2, 14-3-3σ-ΔC (C-terminally truncated human 14-3-3σ) (human, UniProt P31947 1-231); assay: MST
# T2 chain: B2 chain
# 14-3-3 theta = biological target: T3, 14-3-3 theta (Homo sapiens); assay: MST
# T3 chain: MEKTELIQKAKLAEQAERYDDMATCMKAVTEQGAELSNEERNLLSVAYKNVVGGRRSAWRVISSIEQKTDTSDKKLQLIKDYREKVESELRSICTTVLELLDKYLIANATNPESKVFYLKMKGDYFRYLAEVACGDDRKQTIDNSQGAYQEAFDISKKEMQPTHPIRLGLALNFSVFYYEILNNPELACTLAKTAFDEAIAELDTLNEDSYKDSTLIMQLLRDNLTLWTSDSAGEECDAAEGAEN
# [3] = biological target: B2; assay: MST; label-free, intrinsic fluorescence of the 14-3-3 protein; 0.6 µM 14-3-3 protein titrated with peptide; 25 mM MES pH 6.5, 5 mM MgCl2, 5 mM CaCl2; 25°C; conditions: both partners purified
# [4] = biological target: the molecule itself; assay: crystal structure; protein and peptide mixed 1:1.5; 0.1 M HEPES-NaOH pH 7.5, 0.2 M CaCl2, 24-28% PEG 400, 5% glycerol, 1 mM TCEP, 4°C
# [5] = biological target: 14-3-3σ-ΔC (C-terminally truncated human 14-3-3σ) (human) (UniProt P31947); assay: ITC; 150 µM 14-3-3σ-ΔC in the cell, fourfold-concentrated phosphopeptide in the needle; 2 µl injections; 25°C; one-site fit; apparent
binder,measurement,setting,value
GRRSI[pS]FSVGA (also: phosphoserine at 103 (place in chain not given here)) [Sirt3^pS103 phospho-endecamer peptide],Kd,[1],1.5 µM and 2.1 µM
same,Kd,14-3-3 epsilon,> 267 µM
same,Kd,[2],10 µM
same,Kd,14-3-3 theta,52 µM
B1,Kd,[3],~881 µM
B2,binding result,[4],binds
VLSSS[pS]CGSNS (also: phosphoserine at 670 (place in chain not given here)) [Sirt1^pS670 phospho-endecamer peptide],Kd,14-3-3 epsilon,> 183 µM
same,Kd,14-3-3 theta,93 µM
same,Kd,[5],5 µM
